Results published in a protein production outcome set (Wang et al. 2014).

Test: label from the status in PepcDB records

MPADIIIHNGSLITFDEARPQAQALAIQGGMIAAVGSDAEILALAGPETRLIDAGGGTVLPGFIDSHVHLFGGSVELDCLSLYGVKGLDAMRAAIQPYAQANPDDALVFCVMADYDILGTGHTLTRHDLDSILADRPLAMFAPDHHTVWANTAALEATGLLQGGEVDAGSLIVLGEDGLANGELLEPGAYGPILGLTRHGGREMLGLTTGKDPEPPATPDQRARDKDVIARGLAHCAAQGITGLHLMDGNRYQLELLTELEAEGRLLCRCEVPFHMKGTDPVERMTAEAPAMRAAYRGDKVRCNHLKMFIDGVIESGTALMLRPYPGELGANDNTGDEVFTQEHFTACCVEADRLGFQIAVHAIGDAGVRRTIDAFEAARRANGTRDSRHRIEHIEVIHPDDIPRLAELDIVASLQPGHAPRGHVFPPGAVGQYLHPDQIVGAYAWQTIRETGARVVFSTDWPVIPVDVMPSLRAAIAPLDLGPDWPDQSQSLMDTLASYTRDNAWVEFNEDSKGRLKVGMAADIAVLSHDLTALAPDDITQAAAMVTIMDGAVTYQRPG
protein production: failed

MTDKTPWSLRSVGNPSPIEIAMMLLSLLSVIIVLVMTFGRLDKETYRLLFFIDTTICMIFMVNFFAGLFRARDKLFYLRHHWIDFIASIPAIEALRIARVFQILRVIRLIRMSRSFLIPLIKQRKQATLASLLVAMVTILTFASIIILIIESGTEGANIQTAEQAIWWALVTISTVGYGDFYPVSTAGHIVGGIVIVSGVSFFGVISGYMASVFVAPDESERQERQDAHKAEIKSELELALARMEENQRQMELNQAQMLTKIAELKQALEDKKG
protein production: failed

APTSSNDTGKTVVAVTACPTGIAHTYMAAEKLQETANKLGVRIKVETNGSRGVENRLTDKEIAEADGVIIAADVQVDMPRFDGKHLIAKPVAAGIHKPEELIKEAISGNAPVYKAESGSEATEST
protein production: not failed

MPMPTMSQAPHSVRPLNRGHWIATYFIGVAGLSLALMLVLNLILLTTSQNPGKALLDSLSFSVAVLMVSLVLITLIAALPCILFFWLAQRFTWRHLWIYLVSGALAAQFAIPVMTKLLPELFNLPHGVSAALHYLQLASMFGGCGVFMGGLFWWRSGRHLR
protein production: failed

MTNLTNYHSHCLYCDGRANMEDFIRFAISEGFSSYGISSHAPLPFSTAWTMEWDRMDDYLSEFARLKEKYADKIELAIGLEIDYLNEESHPAIPRFQELPLDYRIGSVHMLYSPQGKVVDIDTPADIFRQLIDAHFEGDLDYVVHLYYKNLLRMVELGGFDILGHADKMHYNASCYRPGLLDEPWYDALVRDYFAEIARHGYIVEINTKSYHDLGTFYPNERYFPLLKELGIRVQVNSDAHYPERINNSRAEALAALKKVGFDTVVEWHGGQWKDMPLLQLEHHHHHH
protein production: not failed

MNYLVLLIPVLFSFHQIFVRLGSREAETISGIYVSLLASTIIFIPSVANPTLDGMFLLYMSLAGVLHFFVARICFYHAISRIGANLSAPLSATRVFFAALLGIFVGEYLTLRVVVMSLLIFAGIVLISRPKGKADAFGVTLGILTGLFSALSSYFVKFGNAVDYNPLFAIFLGFALSTILMTPLAVRKDLSHTKFYLAAGVTVGIAHLLRYVVLKDVPVTVVEPITSSYPLFTLLLSAIFLREGEIFTLRSITGTLLILGGIYVYYA
protein production: failed

MDSLIPFDYATLRVLWWLLLGALLIGFAVMDGFDLGVAALLPLVAKTDVERRVVLNVVGPVWEGNQVWLITAGGAIFAAWPLLYAASFSGFYLAMMLVLIALILRPVGFKYRSKMEGTRWRSRWDAVLCFCGVVAALVFGVAMGNIILGVPFGFDAATLRPEYEGHFYQLFKPFALLAGLVSVAMMVMHGGVLLAWRTHDPVSSRARNWGRLAALVTAALFVAGGFWVAYGLDGHVITSAVDMHAPSNPMLKTVELQAGGWMANYEKWPLTWIAPALGVGGALLAFVLLSARANVLAFLASSVSIAGIILTVGFALFPFIMPSSSRPGAGLTVWDGSSSLLTLWIMLLAVAFFLPIITVYTAWVYRVMRGKVTEDSVDGTPNSY
protein production: failed

MYKATVIIKLKKGVLNPEGRTIQRALNFLGFNNVKEVQTYKMIDIIMEGENEEKVKEEVEEMCKKLLANPVIHDYEIKVEKIE
protein production: not failed

MSDVIEGRLKELGFTLPVAAAPAANYVPFTISGNLLYVSGQLPMESGKIAVTGLVGRDVDVASAQRAAELCAVNILAQVKAALNGDLSKIRRVIKLNGFVASVPEFVEQHLVINGASNLIATVLGEPGRHARAAVGMASLPFNASVEIDAIVEIDV
protein production: not failed

SHHKVSVSPVVHVRGLCESVVEADLVEALEKFGTICYVMMMPFKRQALVEFENIDSAKECVTFAADVPVYIAGQQAFFNYSTSKRITRPGN
protein production: not failed

MKTAQHETISNREFYFVLYMMLLYVTGWVIDVNGLFLSSYFNLAGEIMLPLVGGIVGLFIMSVNKQQTK
protein production: failed

MVVMSKVLLNIGCADVDKPGYINVDARKTKVTHLVSNAWDLDCFEENSVHEIYSRHMLEHLNPEYAKLALQKWFYILEPEGKLVVIVPDIEFHARQLLGVSRSSFGDQMEHAFAGFWGWREKERGGSDFDAHQWGYTVATLENEIGAVGFERIERVVEGVDSEPWHLQMTARKPMTSLCCPMDFRGPFPLEHHHHHH
protein production: not failed

GGRGIIRLIKDNKSLTMKNTEVMLHGSSLAFDASTLEIYAALLNGACLSIIDKEDLIDSQTLKEKLKNDHVNRAFFTTPLFNSLCEQDPSVFNELEQVIIGGDRASNKHLKIVMKNSKKTQFYNGYGPTENTVFTTMHNIQYSELEGDIPIGKA
protein production: failed

MTYQALMFDIDGTLTNSQPAYTTVMREVLATYGKPFSPAQAQKTFPMAAEQAMTELGIAASEFDHFQAQYEDVMASHYDQIELYPGITSLFEQLPSELRLGIVTSQRRNELESGMRSYPFMMRMAVTISADDTPKRKPDPLPLLTALEKVNVAPQNALFIGDSVSDEQTAQAANVDFGLAVWGMDPNADHQKVAHRFQKPLDILELFK
protein production: not failed

MSIPKEQYNFNKLQKRLRRNVGQAIADFNMIEDGDKIMVCLSGGKDSYTLLSILMNLQKSAPIQFSLIAVNLDQKQPGFPEHILPEYLEQLGVEYKIVEENTYGIVKEIIPEGKTTCSLCSRLRRGILYRTATEVGATKIALGHHRDDILETLFLNMFYGGKLKGMPPKLMSDDGKHIVIRPLAYAREKDIERFAQAKNFPIIPCNLCGSQPNLQRQVIKEMLRDWDKRYPGRIETMFRATQNIVPSHLCDTQLFDFANIKQGDEIINGGDLAFDKDDIPTSPILSDDEDERPDFSQARLDVVEVK
protein production: not failed

MQKQLLLGVEAIAQAALDAGISGVYAYPGTPSTEITEHIQNSRMAKERNVHREWAANEKTAMESALGMSYAGKRALVCMKHVGMNVAADCFMNAAITGANGGMVIVAADDPSMHSSQNEQDSRVYGQFAMIPVMEPSNQQEAYDMTRLAFDLSERLGTPVMMRITTRLAHSRAGVVQTEPIGENELHLPEDKRQYVLLPGIAKKRYRILLDKQTDFVRESENSPYTEYVDAADKSKGIVACGIAYNYLMEAFKAQVPYPVLKVTQYPIPHKQMERLLNECGDIVVMEEGYPVVEQLLKGFPGLERIKGRLDGTLPRDGELNPDHVAKAFNIPVVEGEPIPDLVAARPPALCKGCSHRDVYDALNEVLTEYPNGRVFSDIGCYTLGALPPYEAINSCVDMGASITMAKGAADAGLFPAVSVIGDSTFTHSGITGLLDAINENSNITVIISDNESISMTGGQHSSAYGKVEAICRGIGVDPDHIRELLPVPKNHDELCSIIREEINYEGVSVIIPRRVCIQKHARDAKAAKRAKAKE
protein production: not failed
